In IntAct's records for PubMed 10373560:

B1: Membrane-associated tyrosine- and threonine-specific cdc2-inhibitory kinase (Homo sapiens), Q99640 (parent)
chain: MLERPPALAMPMPTEGTPPPLSGTPIPVPAYFRHAEPGFSLKRPRGLSRSLPPPPPAKGSIPISRLFPPRTPGWHQLQPRRVSFRGEASETLQSPGYDPSRPESFFQQSFQRLSRLGHGSYGEVFKVRSKEDGRLYAVKRSMSPFRGPKDRARKLAEVGSHEKVGQHPCCVRLEQAWEEGGILYLQTELCGPSLQQHCEAWGASLPEAQVWGYLRDTLLALAHLHSQGLVHLDVKPANIFLGPRGRCKLGDFGLLVELGTAGAGEVQEGDPRYMAPELLQGSYGTAADVFSLGLTILEVACNMELPHGGEGWQQLRQGYLPPEFTAGLSSELRSVLVMMLEPDPKLRATAEALLALPVLRQPRAWGVLWCMAAEALSRGWALWQALLALLCWLWHGLAHPASWLQPLGPPATPPGSPPCSLLLDSSLSSNWDDDSLGPSLSPEAVLARTVGSTSTPRSRCTPRDALDLSDINSEPPRGSFPSFEPRNLLSLFEDTLDPT

Variants of: B1
Conditions: with ccnb1_human CCNB1, P14635
Chain of ccnb1_human CCNB1, P14635 (P14635 whole entry): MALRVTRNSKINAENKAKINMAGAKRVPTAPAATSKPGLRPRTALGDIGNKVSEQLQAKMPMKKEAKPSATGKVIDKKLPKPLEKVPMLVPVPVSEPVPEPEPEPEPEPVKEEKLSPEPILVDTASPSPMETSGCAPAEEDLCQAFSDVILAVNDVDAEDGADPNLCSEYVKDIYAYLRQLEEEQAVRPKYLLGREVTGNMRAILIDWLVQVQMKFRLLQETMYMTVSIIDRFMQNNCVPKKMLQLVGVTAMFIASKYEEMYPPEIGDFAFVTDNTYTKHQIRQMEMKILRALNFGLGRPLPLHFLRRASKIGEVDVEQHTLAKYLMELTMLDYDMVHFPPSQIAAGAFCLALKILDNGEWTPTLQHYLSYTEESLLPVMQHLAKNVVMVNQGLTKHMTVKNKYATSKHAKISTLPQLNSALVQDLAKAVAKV

| Variant | effect of a mutation on the interaction |
| --- | --- |
| R486A;N487A;L488A | decreasing interaction |
